Source: PMC11178655, “Dosimetry and pharmacokinetics of [^177Lu]Lu-satoreotide tetraxetan in patients with progressive neuroendocrine tumours” (European Journal of Nuclear Medicine and Molecular Imaging, 2024)
Where a SMILES comes first, the peptide text is derived from it. Bridges are numbered along the chain shown (N, C = ends). [ ]: non-standard residue; d: D form. The star is where a group is joined. DOTA = O=C(O)CN1CCN(CC(=O)O)CCN(CC(=O)*)CCN(CC(=O)O)CC1; dPhe(4-NHCONH2) = NC(=O)Nc1ccc(C[C@@H](N)C(=O)O)cc1; Dihydroorotyl(S) = O=C1C[C@@H](C(=O)*)NC(=O)N1; Phe(4-Cl) = N[C@@H](Cc1ccc(Cl)cc1)C(=O)O; Phe(4-NH2) = Nc1ccc(C[C@H](N)C(=O)O)cc1

System: patients with progressive, SSTR-positive NETs
Assay: Patient-specific image-based dosimetry (NUKDOS) of tumours and organs, phase I/II trial
Assay type: in vivo, human
Details: median (range)
Protocol: In both parts A and B of the study, patients underwent planar whole-body imaging at 4 h and 1, 2, 3, and 6 days after each [^177Lu]Lu-satoreotide tetraxetan treatment cycle. Patients in part A also underwent single-photon emission computed tomography/computed tomography (SPECT/CT) at 24 h after each [^177Lu]Lu-satoreotide tetraxetan cycle. Those in part B underwent SPECT/CT, immediately before or after planar scintigraphy, at 4 h, and 1, 2, 3, and 6 days after each [^177Lu]Lu-satoreotide tetraxetan administration. Full details of the image acquisition methodology are provided in the Supplementary Information.
Delineation of tumour volumes was performed on anatomical SPECT/CT images after each [^177Lu]Lu-satoreotide tetraxetan administration. Tumours with a longest diameter < 2 cm were not analysed due to the difficulty in correcting for partial volume effects caused by the limited spatial resolution of the SPECT/CT systems. For study inclusion in part A, one tumour lesion ≥ 2 cm must have been present for eligibility; in part B, two or more tumour lesions ≥ 2 cm must have been present, each with an uptake on SSTR imaging higher than that of normal liver parenchyma (target lesion on [^68Ga]Ga-DOTA-TATE or -DOTA-TOC positron emission tomography: maximum standardised uptake value [SUVmax] ≥ 2x the mean SUV [SUVmean] of liver background; or ^111In-scintigraphy/SPECT: Krenning score 3 or 4 [uptake > normal liver, or uptake > spleen or kidneys, respectively [26]]).
Reconstruction parameters were set up to produce isotropic voxels of < 5 mm; voxels were continuous throughout the field of view. Anatomic coverage of the acquisition was determined according to the patients’ tumour locations on the planar whole-body scan acquisition with liver, both kidneys and spleen in the same bed position. For organs showing [^177Lu]Lu-satoreotide tetraxetan uptake, regions of interest (ROIs)/volumes of interest (VOIs) were drawn manually over the whole organs of interest (whole body, left and right kidneys, liver, spleen, and bone marrow), using the NUKDOS software for planar whole-body scans and the SPECT/CT acquired in part A [27]. VOIs for the same organs were drawn for all SPECT/CT images acquired in part B. All ROIs/VOIs were then used for activity quantification. Time-integrated activity coefficients (TIACs) for a given source volume were computed by integrating the time-activity curves. Full details of the tumour delineation and activity quantification methodology are provided in the Supplementary Information.
Patient-specific dosimetry calculations were performed after each treatment cycle in both parts A and B, using the absorbed dose calculation features of the NUKDOS software for image-based dosimetry calculations. The NUKDOS software was chosen as it allowed for an integral approach to organ dosimetry (including image quantification, time-activity curve-fitting and dosimetry calculation). For the bone marrow, both image-based and blood-based calculations were performed in part A [28, 29]. In part B, only image-based bone marrow dosimetry was performed. Organ Level INternal Dose Assessment/EXponential Modelling (OLINDA/EXM) version 1.0 software, the most widely used version at the time of the study, was used to perform model-based dosimetry calculations, which were only performed after the first [^177Lu]Lu-satoreotide tetraxetan cycle for patients in part B. To generate organ-specific absorbed doses, TIACs were used as input data. Full details on OLINDA/EXM software settings and organ-specific TIAC calculation methods are provided in the Supplementary Information.
All images were acquired with a 20% energy window around the main photopeak of ^177Lu (208 keV). For scatter correction, the triple-energy window method was applied based on the recommendation of the Committee on Medical Internal Radiation Dose. Whole-body images were acquired with a scanning time of 20 cm/min in a 256 × 1,024 matrix. […]

[1] = Part A (4.5 GBq, 300 µg), image-based dosimetry, n = 11
[2] = Part A (4.5 GBq, 300 µg), n = 7
[3] = Part A (4.5 GBq, 300 µg), n = 9
[4] = Part A (4.5 GBq, 300 µg), n = 11
[5] = Part A (4.5 GBq/cycle), image-based dosimetry, n = 10
[6] = Part A (4.5 GBq/cycle), n/n-les 9/16
[7] = Part A and B, image-based dosimetry, n = 21
[8] = Part B Cohort 1 (6.0 GBq, reduced to 4.5 GBq after three patients; 300 µg), n = 6
[9] = Part B Cohort 1, image-based dosimetry, n = 1
[10] = Part B Cohort 3 (4.5 GBq, 300 µg), n = 9

For C[C@@H](O)[C@@H]1NC(=O)[C@H](CCCCN)NC(=O)[C@@H](Cc2ccc(NC(N)=O)cc2)NC(=O)[C@H](Cc2ccc(NC(=O)[C@@H]3CC(=O)NC(=O)N3)cc2)NC(=O)[C@H](NC(=O)[C@H](Cc2ccc(Cl)cc2)NC(=O)CN2CCN(CC(=O)O)CCN(CC(=O)O)CCN(CC(=O)O)CC2)CSSC[C@@H](C(=O)N[C@H](Cc2ccc(O)cc2)C(N)=O)NC1=O [[^177Lu]Lu-satoreotide tetraxetan, metal not drawn] ({DOTA}-[Phe(4-Cl)][dC][Phe(4-NH2)](Dihydroorotyl(S))[dPhe(4-NHCONH2)]KTC[dY]-NH2; disulfide 2-7 (inferred); C-terminus assumed), the “Cycle 1 ADC, Bone marrow” value [1] was 0.1 (0.0–0.2) Gy/GBq, the “Cycle 3 ADC, Bone marrow” value [1] was 0.1 (0.0–0.2) Gy/GBq and the “Cycle 1 ADC, Liver” value [2] was 0.2 (0.1–0.3) Gy/GBq. For the same compound, the “Cycle 3 ADC, Liver” value [2] was 0.2 (0.1–0.4) Gy/GBq, the “Cycle 1 ADC, Spleen” value [3] was 0.8 (0.2–1.8) Gy/GBq and the “Cycle 3 ADC, Spleen” value [3] was 0.5 (0.3–1.0) Gy/GBq. The “Cycle 1 ADC, Kidneys” value [4] was 1.1 (0.5–1.9) Gy/GBq, the “Cycle 1 ADC, Tumours” value [4] was 2.6 (0.4–14.3) Gy/GBq and the “Cycle 3 ADC, Kidneys” value [4] was 1.0 (0.7–1.8) Gy/GBq. For the same compound, the “Cycle 3 ADC, Tumours” value [4] was 1.7 (0.3–5.0) Gy/GBq, the “Ratio of ADCs Cycle 2/Cycle 1 (300 vs. 300 µg), Bone marrow” value [5] was 89.5 (54.7–152) % and the “Ratio of ADCs Cycle2/Cycle 3 (300 vs. 300 µg), Bone marrow” value [5] was 109 (23.9–297) %. For the same compound, the “Ratio of ADCs Cycle 2/Cycle 1 (300 vs. 300 µg), Spleen” value (Part A (4.5 GBq/cycle), n = 9) was 93.0 (50.0–270) %, the “Ratio of ADCs Cycle2/Cycle 3 (300 vs. 300 µg), Spleen” value (Part A (4.5 GBq/cycle), n = 9) was 127 (81.1–334) % and the “Ratio of ADCs Cycle 2/Cycle 1 (300 vs. 300 µg), Body” value (Part A (4.5 GBq/cycle), n = 11) was 108 (38.3–142) %. For the same compound, the “Ratio of ADCs Cycle 2/Cycle 1 (300 vs. 300 µg), Kidney” value (Part A (4.5 GBq/cycle), n = 11) was 116 (55.8–140) %, the “Ratio of ADCs Cycle2/Cycle 3 (300 vs. 300 µg), Body” value (Part A (4.5 GBq/cycle), n = 11) was 95.4 (69.5–119) % and the “Ratio of ADCs Cycle2/Cycle 3 (300 vs. 300 µg), Kidney” value (Part A (4.5 GBq/cycle), n = 11) was 101 (80.6–179) %. The “Ratio of ADCs Cycle 2/Cycle 1 (300 vs. 300 µg), Liver lesions” value [6] was 91.8 (28.6–156) %, the “Ratio of ADCs Cycle2/Cycle 3 (300 vs. 300 µg), Liver lesions” value [6] was 127 (73.3–343) % and the “Ratio of ADCs Cycle2/Cycle 3 (300 vs. 300 µg), All lesions” value (Part A (4.5 GBq/cycle), n/n-les 11/23) was 125 (73.3–343) %. The “Ratio of ADCs Cycle 2/Cycle 1 (300 vs. 300 µg), All lesions” value (Part A (4.5 GBq/cycle), n/n-les 11/24) was 83.4 (28.6–156) %, the “Cycle 3 ADC, Bone marrow” value [7] was 0.1 (0.0–0.2) Gy/GBq and the “Ratio of Cycle 3/ Cycle 1 ADCs, Bone marrow” value [7] was 105 (22.4–400) %. For the same compound, the “Cycle 1 ADC, Bone marrow” value (Part A and B, image-based dosimetry, n = 29) was 0.1 (0.0–0.6) Gy/GBq, the “Ratio of Cycle 3/ Cycle 1 ADCs, Liver” value (Part A and B, n = 7) was 88.5 (43.8–132) % and the “Ratio of Cycle 3/ Cycle 1 ADCs, Spleen” value (Part A and B, n = 18) was 83.2 (40.9–231) %. For the same compound, the “Ratio of Cycle 3/ Cycle 1 ADCs, Tumours” value (Part A and B, n = 23) was 78.6 (16.0–195) %, the “Ratio of Cycle 3/ Cycle 1 ADCs, Kidneys” value (Part A and B, n = 25) was 98.6 (59.1–198) % and the “Cycle 3 ADC, Liver” value (Part A and B, patient-specific dosimetry, n = 7) was 0.2 (0.1–0.4) Gy/GBq. For the same compound, the “Cycle 1 ADC, Liver” value (Part A and B, patient-specific dosimetry, n = 8) was 0.2 (0.1–0.3) Gy/GBq, the “Cycle 3 ADC, Spleen” value (Part A and B, patient-specific dosimetry, n = 19) was 0.7 (0.3–1.5) Gy/GBq and the “Cycle 3 ADC, Tumours” value (Part A and B, patient-specific dosimetry, n = 24) was 4.0 (0.3–70.3) Gy/GBq. The “Cycle 3 ADC, Kidneys” value (Part A and B, patient-specific dosimetry, n = 26) was 0.8 (0.4–1.8) Gy/GBq, the “Cycle 1 ADC, Spleen” value (Part A and B, patient-specific dosimetry, n = 27) was 0.8 (0.2–1.8) Gy/GBq and the “Cycle 1 ADC, Tumours” value (Part A and B, patient-specific dosimetry, n = 33) was 5.0 (0.4–83.3) Gy/GBq. The “Cycle 1 ADC, Kidneys” value (Part A and B, patient-specific dosimetry, n = 35) was 0.9 (0.4–1.9) Gy/GBq, the “Ratio of Cycle 3/ Cycle 1 ADCs, Bone marrow” value (Part A, image-based dosimetry, n = 11) was 101 (22.4–302) % and the “Ratio of Cycle 3/ Cycle 1 ADCs, Liver” value (Part A, n = 7) was 88.5 (43.8–132) %. The “Ratio of Cycle 3/ Cycle 1 ADCs, Spleen” value (Part A, n = 9) was 61.5 (40.9–231) %, the “Ratio of Cycle 3/ Cycle 1 ADCs, Kidneys” value (Part A, n = 11) was 106 (59.1–139) % and the “Ratio of Cycle 3/ Cycle 1 ADCs, Tumours” value (Part A, n = 11) was 76.7 (16.0–195) %. The “Cycle 1 ADC, Bone marrow” value (Part B Cohort 1 (6.0 GBq, reduced to 4.5 GBq after three patients; 300 µg), image-based dosimetry, n = 6) was 0.1 (0.1–0.6) Gy/GBq, the “Cycle 1 ADC, Liver” value (Part B Cohort 1 (6.0 GBq, reduced to 4.5 GBq after three patients; 300 µg), n = 1) was 0.2 (0.2–0.2) Gy/GBq and the “Cycle 1 ADC, Tumours” value (Part B Cohort 1 (6.0 GBq, reduced to 4.5 GBq after three patients; 300 µg), n = 5) was 3.9 (1.9–83.3) Gy/GBq. For the same compound, the “Cycle 1 ADC, Kidneys” value [8] was 0.7 (0.6–1.0) Gy/GBq, the “Cycle 1 ADC, Spleen” value [8] was 1.0 (0.5–1.1) Gy/GBq and the “Cycle 3 ADC, Bone marrow” value [9] was 0.1 (0.1–0.1) Gy/GBq. The “Ratio of Cycle 3/ Cycle 1 ADCs, Bone marrow” value [9] was 64.3 (64.3–64.3) %, the “Cycle 3 ADC, Kidneys” value (Part B Cohort 1, n = 1) was 0.7 (0.7–0.7) Gy/GBq and the “Cycle 3 ADC, Spleen” value (Part B Cohort 1, n = 1) was 0.5 (0.5–0.5) Gy/GBq. The “Ratio of Cycle 3/ Cycle 1 ADCs, Kidneys” value (Part B Cohort 1, n = 1) was 111 (111–111) %, the “Ratio of Cycle 3/ Cycle 1 ADCs, Spleen” value (Part B Cohort 1, n = 1) was 82.3 (82.3–82.3) % and the “Cycle 1 ADC, Bone marrow” value (Part B Cohort 3 (4.5 GBq, 300 µg), image-based dosimetry, n = 6) was 0.1 (0.1–0.1) Gy/GBq. For the same compound, the “Cycle 1 ADC, Spleen” value (Part B Cohort 3 (4.5 GBq, 300 µg), n = 6) was 1.0 (0.2–1.5) Gy/GBq, the “Cycle 1 ADC, Kidneys” value [10] was 0.9 (0.5–1.2) Gy/GBq and the “Cycle 1 ADC, Tumours” value [10] was 6.8 (2.1–28.2) Gy/GBq. For the same compound, the “Cycle 3 ADC, Bone marrow” value (Part B Cohort 3 (4.5 GBq, 300 µg; 700 µg at cycle 2), image-based dosimetry, n = 6) was 0.1 (0.0–0.1) Gy/GBq and the “Cycle 3 ADC, Spleen” value (Part B Cohort 3 (4.5 GBq, 300 µg; 700 µg at cycle 2), n = 5) was 0.8 (0.3–1.1) Gy/GBq.
